In PMC7431817:

Legend:
[1] = biological target: EGFR-GFP (epidermal growth factor receptor fused to GFP) on F1-4 cells (UniProt P00533); test: flow cytometry on cells; two-fold dilution series of TAMRA-EGF in PBS + 1% BSA on suspended F1-4 cells, 1 h on ice, measured without washing; Hill equation fit, apparent Kd; untreated (control) cells, all cells
[2] = biological target: EGFR-GFP (epidermal growth factor receptor fused to GFP) on F1-4 cells (UniProt P00533); test: flow cytometry on cells; cells treated with 5 uM lapatinib at 37°C for 1 h and labelled with TAMRA-EGF in the continued presence of the inhibitor, 1 h on ice; Hill equation fit, apparent Kd; medium expresser gate
[3] = biological target: EGFR-GFP (epidermal growth factor receptor fused to GFP) on F1-4 cells (UniProt P00533); test: flow cytometry on cells; cells treated with 5 uM lapatinib at 37°C for 1 h and labelled with TAMRA-EGF in the continued presence of the inhibitor, 1 h on ice; Hill equation fit, apparent Kd; high expresser gate
[4] = biological target: EGFR-GFP (epidermal growth factor receptor fused to GFP) on F1-4 cells (UniProt P00533); test: flow cytometry on cells; cells treated with 5 uM erlotinib at 37°C for 1 h and labelled with TAMRA-EGF in the continued presence of the inhibitor, 1 h on ice; Hill equation fit, apparent Kd; high expresser gate
[5] = biological target: EGFR-GFP (epidermal growth factor receptor fused to GFP) on F1-4 cells (UniProt P00533); test: flow cytometry on cells; F1-4 cells incubated with a concentration series of EGF for 24 h on ice; Hill equation fit; the paper finds internalized EGF and questions equilibrium at this time
[6] = biological target: EGFR-GFP (epidermal growth factor receptor fused to GFP) on F1-4 cells (UniProt P00533); test: flow cytometry on cells; cells treated with 5 uM lapatinib at 37°C for 1 h and labelled with TAMRA-EGF in the continued presence of the inhibitor, 1 h on ice; Hill equation fit, apparent Kd; low expresser gate
[7] = biological target: EGFR-GFP (epidermal growth factor receptor fused to GFP) on F1-4 cells (UniProt P00533); test: flow cytometry on cells; cells treated with 5 uM lapatinib at 37°C for 1 h and labelled with TAMRA-EGF in the continued presence of the inhibitor, 1 h on ice; Hill equation fit, apparent Kd; all cells
[8] = biological target: EGFR-GFP (epidermal growth factor receptor fused to GFP) on F1-4 cells (UniProt P00533); test: flow cytometry on cells; F1-4 cells treated with 2 uM latrunculin-B at 37°C for 10 min, then concentration series of TAMRA-EGF, 1 h on ice; Hill equation fit
[9] = biological target: EGFR-GFP (epidermal growth factor receptor fused to GFP) on F1-4 cells (UniProt P00533); test: flow cytometry on cells; cells treated with 5 uM erlotinib at 37°C for 1 h and labelled with TAMRA-EGF in the continued presence of the inhibitor, 1 h on ice; Hill equation fit, apparent Kd; medium expresser gate
[10] = biological target: EGFR-GFP (epidermal growth factor receptor fused to GFP) on F1-4 cells (UniProt P00533); test: flow cytometry on cells; global fit of the paper's model (conformations of ECD and kinase domain, dimerization, ligand binding to monomers and dimers) to all 12 TAMRA-EGF binding data sets (untreated, erlotinib, lapatinib; three gates and all cells), 1 h on ice; K2-K9 shared; ligand constants in nM, receptor dimerization constants in number of receptors/cell

## Tetramethylrhodamine-labeled EGF (ligand)
[1]
  Kd: 3.4 nM
[2]
  Kd: 5.1 nM
[3]
  Kd: 4.9 nM
[4]
  Kd: 1.7 nM
[5]
  Kd: 5.2 nM
[6]
  Kd: 6.3 nM
[7]
  Kd: 4.9 nM
[8]
  Kd: 8.2 nM
[9]
  Kd: 1.8 nM
[10]
  K3, Kd of EGF binding to a monomer with extended ECD: 1.3 nM
  K5, Kd of binding of the first EGF to a dimer with inactive, symmetric kinase dimer: 95 nM
  K6, Kd of binding of the second EGF to a dimer with inactive, symmetric kinase dimer: 0.45 nM
  K9, Kd of binding of the second EGF to a dimer with active, asymmetric kinase dimer: 2.96 nM
